From publication PMC11385703

How the values were obtained:
[1] = target: Myotoxin II, biotinylated (Bothrops asper) (UniProt P24605); assay: BLI; […]) biosensors; […]; dissociation for 600 s in HEPES-MES pH 3.5; 25°C; 1:1 binding model, […]
[2] = target: Myotoxin II, biotinylated (Bothrops asper) (UniProt P24605); assay: BLI; […]) biosensors; […]; dissociation for 600 s in HEPES-MES pH 4.0; 25°C; 1:1 binding model, […]
[3] = target: Myotoxin II, biotinylated (Bothrops asper) (UniProt P24605); assay: BLI; […]) biosensors; […]; dissociation for 600 s in HEPES-MES pH 4.5; 25°C; 1:1 binding model, […]
[4] = target: Myotoxin II, biotinylated (Bothrops asper) (UniProt P24605); assay: BLI; […]) biosensors; […]; dissociation for 600 s in HEPES-MES pH 5.0; 25°C; 1:1 binding model, […]
[5] = target: Myotoxin II, biotinylated (Bothrops asper) (UniProt P24605); assay: BLI; […]) biosensors; […]; dissociation for 600 s in HEPES-MES pH 5.5; 25°C; 1:1 binding model, […]
[6] = target: Myotoxin II, biotinylated (Bothrops asper) (UniProt P24605); assay: BLI; […]) biosensors; […]; dissociation for 600 s in HEPES-MES pH 6.0; 25°C; 1:1 binding model, […]
[7] = target: Myotoxin II, biotinylated (Bothrops asper) (UniProt P24605); assay: BLI; […]) biosensors; […]; dissociation for 600 s in HEPES-MES pH 6.5; 25°C; 1:1 binding model, […]
[8] = target: Myotoxin II, biotinylated (Bothrops asper) (UniProt P24605); assay: BLI; […]) biosensors; […]; association in HEPES-MES pH 7.4 for 300 s, dissociation in HEPES-MES pH 5.5 for 600 s; 1:1 binding model, […]
[9] = target: Myotoxin II, biotinylated (Bothrops asper) (UniProt P24605); assay: BLI; […]) biosensors; […]; association in HEPES-MES pH 7.4 for 300 s, dissociation in HEPES-MES pH 7.4 for 600 s; 1:1 binding model, […]

Sequence of Myotoxin II, biotinylated (Bothrops asper) (P24605 17-137): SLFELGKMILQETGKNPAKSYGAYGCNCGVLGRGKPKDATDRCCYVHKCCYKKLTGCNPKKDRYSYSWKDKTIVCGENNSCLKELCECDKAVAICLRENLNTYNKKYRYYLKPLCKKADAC

B1: TPL0039_05_A03 Fab (Fab, V domains shown)
VH: QVQLVESGGGLAKPGRSLRLSCAVSGFTFSSYGMHWVRQAPGKGLEWVAVISYDGSNKYYADSVKGRFTISRDNSKNTLYLQMNSLRAEDTAVYYCASTLQQLDAFDIWGQGTMVTVSS
VL: NFMLTQPHSVSESPGKTITISCTRSSGSIASNYVQWYQQRPGSVPTPVIYEDDRRPSGVPDRFSGSIDSSSNSASLTISGLKTEDEADYYCQSYDSSSVVFGGGTKITVL
koff [1]: 0.059 s⁻¹ | koff [2]: 0.01 s⁻¹ | koff [3]: 0.0038 s⁻¹ | koff [4]: 0.0016 s⁻¹ | koff [5]: 0.0012 s⁻¹ | koff [6]: 0.00069 s⁻¹ | koff [7]: 0.00058 s⁻¹ | Kd [8]: 6.04 nM | koff [8]: 0.0011 s⁻¹ | kon [8]: 180000 M⁻¹ s⁻¹ | Kd [9]: 1.5 nM | koff [9]: 0.00031 s⁻¹ | kon [9]: 200000 M⁻¹ s⁻¹
